Earlier results on two substances are cited in article PMC4449261.

In general, Kd refers to the equilibrium constant for the complex coming apart.

Data set [1] addresses IL-4Rα1 (Homo sapiens) (UniProt P24394).
Data set [2] has as its target IL-13Rα1 (Homo sapiens) (UniProt P78552).
Sequence of UniProt P78552 (P78552 22-343): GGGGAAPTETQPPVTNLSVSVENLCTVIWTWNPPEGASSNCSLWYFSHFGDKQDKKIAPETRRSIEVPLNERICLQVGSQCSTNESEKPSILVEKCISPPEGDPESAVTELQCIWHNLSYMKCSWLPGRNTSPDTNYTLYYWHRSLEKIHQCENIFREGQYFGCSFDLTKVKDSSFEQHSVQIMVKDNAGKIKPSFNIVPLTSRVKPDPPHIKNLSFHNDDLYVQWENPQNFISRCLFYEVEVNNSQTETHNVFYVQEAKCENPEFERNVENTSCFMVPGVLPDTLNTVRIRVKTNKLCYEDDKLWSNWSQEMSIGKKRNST

Sequence of UniProt P24394 (P24394 26-232): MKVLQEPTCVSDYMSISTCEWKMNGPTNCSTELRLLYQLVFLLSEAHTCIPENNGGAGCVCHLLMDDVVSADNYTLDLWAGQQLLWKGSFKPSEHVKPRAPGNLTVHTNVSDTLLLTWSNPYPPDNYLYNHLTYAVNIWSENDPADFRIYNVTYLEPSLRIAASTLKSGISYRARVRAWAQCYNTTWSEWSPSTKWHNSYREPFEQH

IL-4 (from UniProt P05112): the Kd in data set [1] was 0.1 nM. As for IL-13 (from UniProt P35225), the Kd in data set [2] is 4 nM.
